The supplement of paper PMC9170038

Tested on: K4 kissing-loop RNA reporter
Test: apparent KD of K4 kissing-loop reporter; higher = weaker reporter binding
Details: Eterna round: R107
Method: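 RNA-MaP round R107: designed RNA switches with theophylline, tryptophan, arginine or FMN aptamers are transcribed on-chip within common flanks. They are titrated with a labelled K4 kissing-loop RNA reporter in RNA-MaP buffer (100 mM Tris pH 7.5, 80 mM KCl, 4 mM MgCl2), without ligand or with the indicated ligand. Median apparent KD per design.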

[1] = input ligand: theophylline 20 uM
[2] = input ligand: tryptophan 2.4 mM
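Also: bound reporter read as fluorescence of individual clusters on recovered sequencing chips by microscopy, with normalized cluster intensities fitted with a binding model.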

Row | Sequence | apparent KD of K4 kissing-loop reporter (input ligand: FMN 200 uM) [nM] | apparent KD of K4 kissing-loop reporter (input ligand: arginine 13.2 mM) [nM] | apparent KD of K4 kissing-loop reporter (input ligand: none) [nM] | apparent KD of K4 kissing-loop reporter [1] [nM] | apparent KD of K4 kissing-loop reporter [2] [nM]
1 | GGCAGUGAUGUUGCCUAAGCAAUGCAUGCGGAGGAUAUUCGUUUGGGAAGAAGGCCGCAGCGUUCUCUCGAGUGAUGUUCGAGUA [Same State FMN A GF 20] | 155 | 141 | 153 | 158 | 126
2 | GGCAUCCAUGGACAUAGUGAUGUUAUGUGCCGAGGACCGGUACGGCCGCCACUCGACCAUGGAUGCCGCAAUCGGAAACGAUUGC | 1090 | 915 | 1610 | 888 | 115
3 | GGCCGGCCGGGAAGGAGCGGGAGUGAUGUUUUCGCAAAGAAAGAUAUAAAAGAAACGAAAUCCCAGGUAGGUCGCCCGGCCGGUU | 64.4 | 113 | 91.3 | 160 | 66.4
4 | GGCGCUGUCUGUGCCGCCCUCCUCGUCCCUCGAGGACCGGUACGGCCGCCACUCGAGUGAUGUUCGGGUAGCCCUCCCUGCCAGC [BDazzled - #22 Exc. Tryptophan A] | 462 | 320 | 492 | 382 | 233
5 | GGCGGCCGCGCGAAAGCGCGGCCGGCCGAUACCAGCGCGACGGCGCGCCCUUGGCAGCGGCGCCGAGUGAUGUUCGGCCUGCCGU [#2 Same State - Theophylline A Attempt #13 (HarryS)] | 126 | 122 | 117 | 145 | 116
6 | GGGAGAAGUGGUGUUGAUUAAGAAGCGGAAGGAGCGCCGAAGAAGGCAGGUAGGUCGCCGAAAUAUAGUGAUGUUAUAUAAAGGG [ExArg.B] | 155 | 184 | 137 | 218 | 152
7 | GGGAGUAGUGCGGCCGCCACUGAGAAAGAAGAAGAAUAUAGUGAUGUUAUAUAGGAAAGGAAGAACAGGACCGGGCAUUAGAGGG [SSTRyptB.C] | 163 | 171 | 147 | 243 | 131
8 | GGGAGUUAUUACGGCAGGGUCGAUACGGAUACCAGUAGGCGGCUCUACCCUUGGCAGCCGUAACAUGGUAGUGAUGUUAUCAGUC [theeternabot_exclusion_KL_Theo_A_24] | 527 | 420 | 518 | 468 | 405
9 | GGGAUGUAGGGAAGGAGCGCUUUGCGAAUAUUAAUGAGUGAUGUUCGUAGAUAUUUGUAAUGGCAGGUAGGUCGCCCUAUAUCCC [Skye_SS_AB] | 197 | 131 | 166 | 151 | 157
10 | GGGCCUAUUGAUGCUGGAGCAAUUCUGGAAGGAGCGCUCAAAGGAGCAGGUAGGUCGCCAGUAUGCAAGGGCAGUGAUGUUGCCC [Ersoarxe] | 238 | 164 | 233 | 145 | 189
11 | GGGCGUGGCGCGGCCGCCACUGGGCCUGGGCGCUCGCUGAGUGAUGUUCGUCGGCGGCUGGGUCGUAGGACCGGGUGCUGGUUGG [BDazzled - #7 SS Tryptophan B] | 529 | 309 | 438 | 424 | 302
12 | GGGUCUGUCGGAAGGAGCGCACUAUGGAGUGAUGUUCCAUGACCGCACAGCUUGCGGUCAGUGCAGGUAGGUCGCCGAUAGCUUU [Usquso] | 277 | 169 | 197 | 286 | 164
13 | GGGUGGCAGGCGGCCGCCACUCUGAGCACCCACUGAGUGAUGUUCGUGGCGUAAGACUGUUCGUAGAGGACCGGGUUUGUUGUUC [Same State Tryptophan B GF 23] | 203 | 143 | 214 | 306 | 205
14 | GGUAGCAUGGCGGCCGCCACUACCUAGUGAUGUUAGGCUGUGGACAUAGGAGCAAGACAAAUAUGUAGGACCGGGCCAUGCUACC | 126 | 92.8 | 111 | 124 | 131
15 | GGUAGCAUGGCGGCCGCCACUGGAGAGUGAUGUUCUCCACUAGGUUACAACGCCGGACAGUCCACCAGGACCGGGCCAUGCUACC | 140 | 106 | 131 | 129 | 436
16 | GGUAGCGCCAGAGAUACCAGUCAUAUCGCUCUGGAGUGAUGUUCCGGAACGUGCGGAGAAGACCCUUGGCAGCUCAUGACGGUAU [Exclusion Theophylline B GF 3] | 219 | 175 | 189 | 227 | 171
17 | GGUAGGGCAGCUGCGGAAACGCAGCAUAUCGAGGAUAUCGGGAAACCGAGAAGGCGAGUAGUGAUGUUACUGGUUUAGCCCUACC | 444 | 167 | 191 | 196 | 173
18 | GGUGCUGUCUGUGCCGCCCUCCUCGUUCCUCGAGGACCGGUACGGCCGCCACUCGAGUGAUGUUCGGGUAGCGAUCCCUGCUAGC [Bdazzled - #17 Exc. Tryptophan A] | 221 | 176 | 207 | 191 | 204
19 | GGUUUCUGAAGUGAUGUUUCAGGAUGACACAAGGAUAUAUAUGGCGAUAGAAGGUGUGCGUCGCAUGACGAACGACGUCAGCUUC [theeternabot_exclusion_KL_FMN_A_37] | 94.8 | 80.9 | 120 | 123 | 93
20 | GUACCUUGGAAACAAGGACCGCUAACCGAAGGAGCGCGUGAAAACGCAGGUAGGUCGCGGUAGCGGAGUGAUGUUCCGCGAGAGG [Excluson Arginine A GF 14] | 166 | 235 | 196 | 268 | 165
21 | GUAGACGUACCUUCAGUGAUGUUGAAGGAUACCAGAUGUUAUCACAUCCCUUGGCAGCCUUGGGAUAACAGUGAGUCGGAAUAUG [Essoaran] | 170 | 142 | 184 | 159 | 168
